# From patent publication US20060020110A1, “Synthetic peptides that bind to the hepatitis B virus core and E antigens” (priority 2000, published 2006)
# Like-named read-outs stand apart in the source and are kept apart here.
# How the values were obtained:
# [1] = molecular target: T1, HBcAg (Hepatitis B virus genotype D subtype ayw, UniProt P03146); details: for gG2 mAb binding to indicated antigen on solid phase: HBcAg: fusion peptide in solution 20 μg/well
# Procedure: To evaluate the efficacy of the specificity exchangers described above, several binding assays using a mAb specific for HSV gG2 were conducted. In one assay, the various specificity exchangers were coated onto microtiterplates and were bound with the mAb specific for HSV gG2. […] ID. […] In another assay, HBcAg was coated onto microtiter plates, specificity exchanger was added (20 μg/well), and the binding of the mAb specific for HSV gG2 was determined. […] ID. […] In another binding assay, HBeAg was coated onto microtiter plates, specificity exchanger was added (20 μg/well), and the binding of the mAb specific for HSV gG2 was determined. […] ID. […] The characterization assays used to evaluate binding partners can also be used and/or modified for the analysis of the specificity exchangers.
# [2] = system: B cell - mediated antigen presentation of HBcAg to experienced T cells; test: Inhibition of B cell-mediated antigen presentation of HBcAg to experienced T cells; type: cell-based, Balb/c mice
# Procedure: A characterization assay that was used to evaluate the ability of a binding partner to modulate a host immune system response to HBV was conducted as follows. Groups of Balb/c mice were immunized subcutaneously with 20 μg HBcAg. Ten days later, draining lymph nodes were harvested and experienced CD4^+ T cells were purified using anti-CD4 coated magnetic beads (Dynal A S, Oslo, Norway) according to the manufacturers instructions. Naïve B cells were obtained from syngeneic mice, which had not been immunized. These B cells were used as antigen presenting cells in the characterization assay.
# The ability of the different mAbs and peptides to block B cell uptake and antigen presentation of HBcAg-peptides to HBcAg-specific CD4+ T cells was then tested in vitro. The cell populations were mixed at a B/T cell ratio of 1:5 and added at a final concentration of approximately 2.5×10^5 to 5.0×10^5 cells per well in a 96 well microplate. Approximately, 20 μg of HBcAg was preincubated with the binding partner. The binding partner mixtures were then added to the cells and the plates were incubated for 26 to 96 hours at 37° C. The effect of the binding partners on T cell proliferation was determined by monitoring [^3H] thymidine incorporation.
# [3] = molecular target: T2, HBeAg (Hepatitis B virus genotype D subtype ayw, UniProt P0C573); test: Redirection of HSV gG2 mAb to HBeAg on solid phase by fusion peptide in solution; type: binding; details: for gG2 mAb binding to indicated antigen on solid phase: HBeAg: fusion peptide in solution 20 μg/well
# T2 construct: containing nine residues of pre-core and the 150 first residues of HBcAg; made in house
# T2 sequence (P0C573 21-179): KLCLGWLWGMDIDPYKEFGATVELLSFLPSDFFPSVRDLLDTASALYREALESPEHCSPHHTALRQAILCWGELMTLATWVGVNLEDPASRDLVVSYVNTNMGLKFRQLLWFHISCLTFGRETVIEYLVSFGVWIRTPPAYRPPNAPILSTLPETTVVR
# Description: (§1) ID. […] The specificity exchangers provided in SEQ. ID. […] Similarly, the specificity exchangers provided in SEQ. ID.
# [4] = molecular target: T2, HBeAg; test: Binding of HBeAg to support-bound peptides (EIA); details: antigen at concentrations as low as 0.67 μg/ml, TABLE 8
# [5] = molecular target: T1, HBcAg; details: for Binding of 10 μg/ml HBcAg to dilutions of support-bound peptide (in words): at low concentrations, TABLE 9; for Binding to HBcAg (in words): support-bound peptides
# Description: (§2) One approach to rational drug design involves sequential amino acid deletion of a known binding partner starting from either the amino or carboxy termini. Amino-terminal deletions of the binding partners of SEQ. ID. Nos. 5 and 17 were made and these peptide fragments were joined to a support and analyzed for the ability to bind HBcAg. […] ID. […] The amino-terminal deletions of the peptide of SEQ. ID. […] The amino-terminal deletion products of the peptide of SEQ. ID. […] ID.
# To determine whether a candidate binding partner bound to HBcAg and/or HbeAg, a multimeric support-based binding assay was performed. Accordingly, synthetic peptides corresponding to the VH and VL domains of the sequenced mAbs were passively adsorbed to 96 well microplates in serial dilutions starting at 200 μg/ml. The peptide coated plates were then incubated with HBcAg and HBeAg serially diluted in PBS-GT. The amount of HBcAg and HBeAg bound by the peptides was then detected using a mAb directed to an epitope common to HBcAg and HBeAg (See Sällberg et al., J General Virology 74:1335-1340 (1993), herein expressly incorportaed by reference in its entirety) diluted 1:3000 in PBS-GT. The quantity of bound mAb was determined by addition by peroxidase labeled rabbit anti-mouse IgG (P260, Dako A S, Denmark). The plates were developed by incubation with ortho-phenylene-diamine (Sigma) and the absorbance at 492 nm was evaluated.
# The converse of an aspect of this experiment was also performed. That is, various dilutions of support-bound binding partners (SEQ. ID. Nos. 5, 16, 17, 28, and 29) were contacted with 10 μg/ml of HBcAg and binding was evaluated. ID.
# [6] = molecular target: T1, HBcAg; details: peptide contacted with HBcAg prior to antibody
# Description: as §2
# (§3) Variations of the characterization assays described above include competitive binding assays. […] Initial experiments were conducted by contacting binding partner to HBcAg prior to introducing the antibody. […] ID. […] ID. […] ID. […] ID. […] ID. […] ID.
# [7] = molecular target: T1, HBcAg; details: for Lowest peptide concentration that prevented binding of mAb 4-2: peptide in the presence of mAb 4-2
# Procedure: as §3
# [8] = system: mAb specific for HSV gG2; test: gG2 mAb binding to fusion peptide on solid phase; details: for gG2 mAb binding to indicated antigen on solid phase: fusion peptide: no addition of fusion peptide in solution
# Description: as §1
# [9] = antigen at concentrations as low as 0.67 μg/ml, TABLE 8
# [10] = peptide 100 μg/ml in the presence of mAb 4-2
# [11] = peptide 200 μg/ml in the presence of mAb 4-2
# [12] = concentrations as low as 100 μg/ml
# [13] = specificity exchanger 20 μg/well
# [14] = concentrations as low as 50 μg/ml
# T1 sequence (P03146 whole entry, the tested form may be a part): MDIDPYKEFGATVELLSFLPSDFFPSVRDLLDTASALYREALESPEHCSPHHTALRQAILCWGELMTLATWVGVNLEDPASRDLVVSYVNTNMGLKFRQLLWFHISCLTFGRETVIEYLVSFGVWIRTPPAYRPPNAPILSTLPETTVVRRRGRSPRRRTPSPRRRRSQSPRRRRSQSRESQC
Sequence,gG2 mAb binding to indicated antigen on solid phase: HBcAg [1],gG2 mAb binding to indicated antigen on solid phase: HBeAg [3],Binding to HBeAg (in words) [4],Binding of 10 μg/ml HBcAg to dilutions of support-bound peptide (in words) [5],Binding to HBcAg (in words) ([5]; TABLE 7),"Binding to HBcAg (in words) [5, 9]",Inhibition of mAb 4-2 binding to HBcAg (in words) ([6]; peptide 200 μg/ml),"Competition with mAb 4-2 for binding to HBcAg (in words) [7, 10]","Competition with mAb 4-2 for binding to HBcAg (in words) [7, 11]",Lowest peptide concentration that prevented binding of mAb 4-2 [7] [µg/mL],"Inhibition of mAb 4-2 binding to HBcAg (in words) [6, 12]",gG2 mAb binding to indicated antigen on solid phase: fusion peptide [8],further results
QQKPGQPPKLLIKYASNLES (Synthetically prepared amino acid sequence) [Peptide 16],0.038,0.022,,,,,,,,,,,"Inhibition of B cell mediated antigen presentation of HBcAg to specific CD4+ T cells (in words) [2]: no inhibition; cpm ([3H] thymidine incorporation, T cell proliferation) ([2]; T + B cells, 20 μg HBcAg preincubated with inhibitor, positive control 573, background 110): 572 cpm; % inhibition of APC ([2]; T + B cells, 20 μg HBcAg, calculated from cpm versus positive control and background proliferation): 0%"
ISCRASQSVSTSSYSYMHWY (Synthetically prepared amino acid sequence) [Peptide 14],,,appreciable binding,appreciable binding at low concentrations,high affinity,appreciable binding,able to inhibit binding of mAb 4-2,,,,,,
LAVSLGQRATISCRASQSVS (Synthetically prepared amino acid sequence) [Peptide 13],,,appreciable binding,appreciable binding at low concentrations,high affinity,appreciable binding,able to inhibit binding of mAb 4-2,effectively competed with mAb 4-2,significantly inhibited,6.25,,,
VKPGASVKISCKASGYSFTG (Synthetically prepared amino acid sequence) [Peptide 25],,,appreciable binding,appreciable binding at low concentrations,high affinity,appreciable binding,able to inhibit binding of mAb 4-2,effectively competed with mAb 4-2,significantly inhibited,12.5,effectively reduced binding of the antibody,,
KLSCKASGYIFTSHRGGPEEF [SEQ. ID. No. 71],0.550,0.638,,,,,,,,,,1.622,"Binding to immobilized HBcAg allowing binding of HSV gG2 mAb (in words) [1, 13]: appreciably bound the immobilized HBcAg; Binding of mAb specific for HSV gG2 to coated specificity exchanger (in words) ([8]; specificity exchanger coated onto microtiterplates): appreciably bound the mAb; Binding to immobilized HBeAg allowing binding of HSV gG2 mAb (in words) [3, 13]: appreciably bound the immobilized HBeAg"
VKLSCKASGYIFTSEHRGGPE [SEQ. ID. No. 73],0.038,0.029,,,,,,,,,,0.060,
KLSCKASGYIFTSEHRGGPEE [SEQ. ID. No. 70],0.020,0.022,,,,,,,,,,0.040,
CKASGYSFTGYNMNWVKQSH (Synthetically prepared amino acid sequence) [Peptide 26],,,appreciable binding,,high affinity,appreciable binding,able to inhibit binding of mAb 4-2,effectively competed with mAb 4-2,significantly inhibited,,effectively reduced binding of the antibody,,"Inhibition of mAb 4-2 binding to HBcAg (in words) [6, 14]: appreciably reduced binding of mAb 4-2"
KLSCKASGYIFTSRGGPEEFE [SEQ. ID. No. 72],0.016,0.040,,,,,,,,,,0.062,
VKPGASVKLSCKASGYIFTS (Synthetically prepared amino acid sequence) [Peptide 2],,,appreciable binding,appreciable binding at low concentrations,high affinity,appreciable binding,able to inhibit binding of mAb 4-2,effectively competed with mAb 4-2,significantly inhibited,6.25,effectively reduced binding of the antibody,,"Inhibition of mAb 4-2 binding to HBcAg (in words) [6, 14]: appreciably reduced binding of mAb 4-2"
